Source: the RNAGym collection of RNA variant scans (doi:10.7554/elife.90254)

B1: OR4K15 (parent)
chain: GUUAACGGUCAUAGGCCAUGGAAACUAGGAGCACCAUUUCGCUGCCAGUGAAGAAAUGAACAAAGAAAAUCUGGGCCAGGCAGGCAUCAAAAGAAAUAGUCUUGCGCUCAACCAGAAAGUCUGUAAUCAUUUUAAGGGUA

Variants of: B1
Test: self-cleavage, relative activity (ratio to wild type); higher = more cleavage; in vitro, sequencing; the parent is a self-cleaving ribozyme

In order of falling self-cleavage:
1. GUUAACGGUCAUAGGCCAUGGAAACUAGGAGCACCAUUUCGCUGCCAGUGAAGAAAUGAACAAAGAAAAUCUGGGCCAGGCAGGCAUCAAAAGAAAUAGUCUUGCGCUUAACCAGAAAGUCUGUAAGCAUUUUAAGGGUA [C109U U127G]  0.62
2. GUUAACGGUCAUAGGCCAUGGAAACUAGGAGCACCAUUUCGCUGCCAGUGAAGAAAUGAACAAAGAAAAUCUGGGCCAGGCAGGCAUCAAAAGAAAUAGUCUUGCGCUUAACCAGAAAGUCUGUAAUCAUUUUAAGGGUA [C109U]  0.49
3. GUUAACGGUCAUAGGCCAUGGAAACUAGGAGCACCAUUUCGCUGCCAGUGAAGAAAUGAACAAAGAAAAUCUGGGCCAGGCAGGCAUCAAAAGAAAUAGUCUUGCGCUAAACCAGAAAGUCUGUAAUCAUUUUAAGGGUG [C109A A140G]  0.47
4. GUUAACGGUCAUAGGCCAUGGAAACUAGGAGCACCAUUUCGCUGCCAGUGAAGAAAUGAACAAAGAAAAUCUGGGCCAGGCAGGCAUCAAAAGAAAUAGUCUUGCGCUUAACCAGAGAGUCUGUAAUCAUUUUAAGGGUA [C109U A117G]  0.44
5. GUUAACGGUCAUAGGCCAUGGAAACUAGGAGCACCAUUUCGCUGCCAGUGAAGAAAUGAACAAAGAAAAUCUGGGCCAGGCAGGCAUCAAAAGAAAUAGUCUUGCGCUAAACCAGAAAGUCUGUAAUCAUUUUAAGGGUA [C109A]  0.38
6. GUUAACGGUCAUAGGCCAUGGAAACUAGGAGCACCAUUUCGCUGCCAGUGAAGAAAUGAACAAAGAAAAUCUGGGCCAGGCAGGCAUCAAAAGAAAUAGUCUUGCGCUAAACCAGAAAGCCUGUAAUCAUUUUAAGGGUA [C109A U120C]  0.36
7. GUUAACGGUCAUAGGCCAUGGAAACUAGGAGCACCAUUUCGCUGCCAGUGAAGAAAUGAACAAAGAAAAUCUGGGCCAGGCAGGCAUCAAAAGAAAUAGUCUUGCGCUUAACCAGAAAGUCUGUAAUCACUUUAAGGGUA [C109U U130C]  0.35
8. GUUAACGGUCAUAGGCCAUGGAAACUAGGAGCACCAUUUCGCUGCCAGUGAAGAAAUGAACAAAGAAAAUCUGGGCCAGGCAGGCAUCAAAAGAAAUAGUCUUGCGCUCCACCAGGAAGUCUGUAAUCAUUUUAAGGGUA [A110C A116G]  0.26
9. GUUAACGGUCAUAGGCCAUGGAAACUAGGAGCACCAUUUCGCUGCCAGUGAAGAAAUGAACAAAGAAAAUCUGGGCCAGGCAGGCAUCAAAAGAAAUAGUCUUGCGCUUAACCAGAAAGUCUGUAAUCAAUUUAAGGGUA [C109U U130A]  0.25
10. GUUAACGGUCAUAGGCCAUGGAAACUAGGAGCACCAUUUCGCUGCCAGUGAAGAAAUGAACAAAGAAAAUCUGGGCCAGGCAGGCAUCAAAAGAAAUAGUCUUGCGCUUAACCGGAAAGUCUGUAAUCAUUUUAAGGGUA [C109U A114G]  0.2
11. GUUAACGGUCAUAGGCCAUGGAAACUAGGAGCACCAUUUCGCUGCCAGUGAAGAAAUGAACAAAGAAAAUCUGGGCCAGGCAGGCAUCAAAAGAAAUAGUCUUGCGCUUAACCAGAAAGUCUGUGAUCAUUUUAAGGGUA [C109U A125G]  0.17
12. GUUAACGGUCAUAGGCCAUGGAAACUAGGAGCACCAUUUCGCUGCCAGUGAAGAAAUGAACAAAGAAAAUCUGGGCCAGGCAGGCAUCAAAAGAAAUAGUCUUGCGCUUAACCAGAAAGCCUGUAAUCAUUUUAAGGGUA [C109U U120C]  0.15
13. GUUAACGGUCAUAGGCCAUGGAAACUAGGAGCACCAUUUCGCUGCCAGUGAAGAAAUGAACAAAGAAAAUCUGGGCCAGGCAGGCAUCAAAAGAAAUAGUCUUGCGCUUAACCAGAAAGUCUGUAGUCAUUUUAAGGGUA [C109U A126G]  0.14
14. GUUAACGGUCAUAGGCCAUGGAAACUAGGAGCACCAUUUCGCUGCCAGUGAAGAAAUGAACAAAGAAAAUCUGGGCCAGGCAGGCAUCAAAAGAAAUAGUCUUGCGCUAAACCAGAACGUCUGUAAUCAUUUUAAGGGUA [C109A A118C]  0.14
15. GUUAACGGUCAUAGGCCAUGGAAACUAGGAGCACCAUUUCGCUGCCAGUGAAGAAAUGAACAAAGAAAAUCUGGGCCAGGCAGGCAUCAAAAGAAAUAGUCUUGCGCGCAACCAGAAAGUCCGUAAUCAUUUUAAGGGUA [U108G U122C]  0.02
16. GUUAACGGUCAUAGGCCAUGGAAACUAGGAGCACCAUUUCGCUGCCAGUGAAGAAAUGAACAAAGAAAAUCUGGGCCAGGCAGGCAUCAAAAGAAAUAGUCUUGCGCGCAACCAGAAAGUCUGUAAUCAUUUCAAGGGUA [U108G U133C]  0.02
17. GUUAACGGUCAUAGGCCAUGGAAACUAGGAGCACCAUUUCGCUGCCAGUGAAGAAAUGAACAAAGAAAAUCUGGGCCAGGCAGGCAUCAAAAGAAAUAGUCUUGCGCUGAACCAGAAAGUCUGUAAUCAUUUUAAGGGUA [C109G]  0.02
18. GUUAACGGUCAUAGGCCAUGGAAACUAGGAGCACCAUUUCGCUGCCAGUGAAGAAAUGAACAAAGAAAAUCUGGGCCAGGCAGGCAUCAAAAGAAAUAGUCUUGCGCGCAACCAGAAGGUCUGUAAUCAUUUUAAGGGUA [U108G A118G]  0.01
19. GUUAACGGUCAUAGGCCAUGGAAACUAGGAGCACCAUUUCGCUGCCAGUGAAGAAAUGAACAAAGAAAAUCUGGGCCAGGCAGGCAUCAAAAGAAAUAGUCUUGCGCUCCACCUGAAAGUCUGUAAUCAUUUUAAGGGUA [A110C A114U]  0.01
20. GUUAACGGUCAUAGGCCAUGGAAACUAGGAGCACCAUUUCGCUGCCAGUGAAGAAAUGAACAAAGAAAAUCUGGGCCAGGCAGGCAUCAAAAGAAAUAGUCUUGCGCGCAACCAGAAAGUCUGUAGUCAUUUUAAGGGUA [U108G A126G]  0
21. GUUAACGGUCAUAGGCCAUGGAAACUAGGAGCACCAUUUCGCUGCCAGUGAAGAAAUGAACAAAGAAAAUCUGGGCCAGGCAGGCAUCAAAAGAAAUAGUCUUGCGCGCAACCAGGAAGUCUGUAAUCAUUUUAAGGGUA [U108G A116G]  0
